Reference: publication PMC11342335 (2024)

Biological target: human sortilin (R&D Systems, 3154-ST) (human, UniProt Q99523 78-755)
Assay: SPR

Sequence of human sortilin (R&D Systems, 3154-ST) (Q99523 78-755): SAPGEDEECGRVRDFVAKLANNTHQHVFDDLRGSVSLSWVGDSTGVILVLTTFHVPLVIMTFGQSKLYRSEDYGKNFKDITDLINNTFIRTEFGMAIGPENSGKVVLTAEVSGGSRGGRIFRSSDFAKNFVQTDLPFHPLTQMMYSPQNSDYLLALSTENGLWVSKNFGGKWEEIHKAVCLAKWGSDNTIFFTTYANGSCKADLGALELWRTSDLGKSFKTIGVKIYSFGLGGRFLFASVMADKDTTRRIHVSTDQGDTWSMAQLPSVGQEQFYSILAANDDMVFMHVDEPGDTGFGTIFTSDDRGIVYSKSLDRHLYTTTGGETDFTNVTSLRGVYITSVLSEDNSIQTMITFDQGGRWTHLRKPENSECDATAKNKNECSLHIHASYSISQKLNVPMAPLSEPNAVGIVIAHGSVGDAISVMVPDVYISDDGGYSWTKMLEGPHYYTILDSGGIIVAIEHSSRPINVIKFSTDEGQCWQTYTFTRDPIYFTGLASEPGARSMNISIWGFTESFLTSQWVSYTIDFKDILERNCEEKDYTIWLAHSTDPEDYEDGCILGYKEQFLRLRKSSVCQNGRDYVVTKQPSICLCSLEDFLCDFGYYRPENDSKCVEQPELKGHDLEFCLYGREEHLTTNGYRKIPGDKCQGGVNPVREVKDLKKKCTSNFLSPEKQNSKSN

B1: ABD-PGRNC21* (His6-ABD035-PGRNC21*) (peptide)
chain: LRREAPRWDAPLRDPGLRQLL
For B1, the Kd was 26 nM.
